Experimental data: patent US20240239890A1 (Chugai, published 2024)

T1: Human RNF43 ECD with Fc region fused on its C-terminus (human)
T1 construct: also called RNF43-Fc
T1 chain: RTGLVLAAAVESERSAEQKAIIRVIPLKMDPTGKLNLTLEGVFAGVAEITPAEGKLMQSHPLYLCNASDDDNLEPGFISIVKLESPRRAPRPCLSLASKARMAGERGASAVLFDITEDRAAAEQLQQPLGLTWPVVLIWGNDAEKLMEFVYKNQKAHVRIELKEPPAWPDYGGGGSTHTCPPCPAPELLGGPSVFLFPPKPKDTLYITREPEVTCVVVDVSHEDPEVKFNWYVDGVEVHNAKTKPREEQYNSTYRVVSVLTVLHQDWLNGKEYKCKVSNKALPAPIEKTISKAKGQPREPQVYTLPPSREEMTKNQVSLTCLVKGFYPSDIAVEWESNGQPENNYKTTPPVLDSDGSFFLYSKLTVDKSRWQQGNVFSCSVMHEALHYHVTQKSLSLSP

B1: RNN0207ii with rabbit constant region (antibody)
heavy: QEQLEESGGRLVTPGGSLTLTCTASGFSLSSYVISWVRQAPGEGLEYIGYVSTGGSPYYASWAKGRFTISRTSTAVDLKMTSLTASDTATYFCARYGYLDYSGLDLWGQGTLVTVSSGQPKAPSVFPLAPCCGDTPSSTVTLGCLVKGYLPEPVTVTWNSGTLTNGVRTFPSVRQSSGLYSLSSVVSVTSSSQPVTCNVAHPATNTKVDKTVAPSTCSKPMCPPPELLGGPSVFIFPPKPKDTLMISRTPEVTCVVVDVSQDDPEVQFTWYINNEQVRTARPPLREQQFNSTIRVVSTLPIAHQDWLRGKEFKCKVHNKALPAPIEKTISKARGQPLEPKVYTMGPPREELSSRSVSLTCMINGFYPSDISVEWEKNGKAEDNYKTTPTVLDSDGSYFLYSKLSVPTSEWQRGDVFTCSVMHEALHNHYTQKSISRSPGK
light: AQVLTQTPSSTSTAVGGTVTINCQSSQSVYEYNHLSWFQQKPGQPPKLLIYGASTLASGVPSRFKGSGSGTQFTLTISDLECDDAATYYCQGAYYGVVDTFGGGTKVEIKRDPVAPTVLIFPPAADQVATGTVTIVCVANKYFPDVTVTWEVDGTTQTTGIENSKTPQNSADCTYNLSSTLTLTSTQYNSHKEYTCKVTQGTTSVVQSFNRGDC
B2: RNN0187jj with rabbit constant region (antibody)
heavy: QSLEESGGDLVKPGASLTLTCTASGFSFNSAYYMCWVRQAPGKGLEWIGCIYTGSGSTYYASWAKGRFTISKTSSTTVTLQMTSLTVADTATYFCARSGVSTYYTLWGPGTLVTVSSGQPKAPSVFPLAPCCGDTPSSTVTLGCLVKGYLPEPVTVTWNSGTLTNGVRTFPSVRQSSGLYSLSSVVSVTSSSQPVTCNVAHPATNTKVDKTVAPSTCSKPMCPPPELLGGPSVFIFPPKPKDTLMISRTPEVTCVVVDVSQDDPEVQFTWYINNEQVRTARPPLREQQFNSTIRVVSTLPIAHQDWLRGKEFKCKVHNKALPAPIEKTISKARGQPLEPKVYTMGPPREELSSRSVSLTCMINGFYPSDISVEWEKNGKAEDNYKTTPTVLDSDGSYFLYSKLSVPTSEWQRGDVFTCSVMHEALHNHYTQKSISRSPGK
light: DVVMTQTPSSVSAAVGGTVTIKCQASQSIYSGLAWYQQKPGQPPKLLIYGASTLASGVPSRFKGSGSGTEYTLTISGVQCDDAATYYCQNNYYTPSNGWAFGGGTKVEIKRDPVAPTVLIFPPAADQVATGTVTIVCVANKYFPDVTVTWEVDGTTQTTGIENSKTPQNSADCTYNLSSTLTLTSTQYNSHKEYTCKVTQGTTSVVQSFNRGDC
B3: RNN0192nn with rabbit constant region (antibody)
heavy: QEQLVESGGGLVQPEGSLTLTCTASGFSFSSRYYMCWVRQAPGKGLEWIGCIYTGSGSTYYASWAKGRVTISKTSSTTVTLQMTSLTAADTATYFCAREAGSFNLWGPGTLVTVSSGQPKAPSVFPLAPCCGDTPSSTVTLGCLVKGYLPEPVTVTWNSGTLTNGVRTFPSVRQSSGLYSLSSVVSVTSSSQPVTCNVAHPATNTKVDKTVAPSTCSKPMCPPPELLGGPSVFIFPPKPKDTLMISRTPEVTCVVVDVSQDDPEVQFTWYINNEQVRTARPPLREQQFNSTIRVVSTLPIAHQDWLRGKEFKCKVHNKALPAPIEKTISKARGQPLEPKVYTMGPPREELSSRSVSLTCMINGFYPSDISVEWEKNGKAEDNYKTTPTVLDSDGSYFLYSKLSVPTSEWQRGDVFTCSVMHEALHNHYTQKSISRSPGK
light: DVVMTQTPASVSEPVGGTVTIKCQASQSIYSGLAWYQQKPGQPPKLLIYSASKLASGVPSRFKGSGSGTEYTLTISDLECADAATYYCQNYYYGISNGWTFGGGTKVEIKRDPVAPTVLIFPPAADQVATGTVTIVCVANKYFPDVTVTWEVDGTTQTTGIENSKTPQNSADCTYNLSSTLTLTSTQYNSHKEYTCKVTQGTTSVVQSFNRGDC
B4: RNN0193jj with rabbit constant region (antibody)
heavy: QSLEESGGDLVKPGASLTLTCTASGFSFSNNYWICWVRQAPGKGPEWIACIYTGDGDTDYASWAKGRFTISKTSSTTVTLQMTSLTAADTATYFCAREAGTVDGVWNYVFNLWGPGTLVTVSSGQPKAPSVFPLAPCCGDTPSSTVTLGCLVKGYLPEPVTVTWNSGTLTNGVRTFPSVRQSSGLYSLSSVVSVTSSSQPVTCNVAHPATNTKVDKTVAPSTCSKPMCPPPELLGGPSVFIFPPKPKDTLMISRTPEVTCVVVDVSQDDPEVQFTWYINNEQVRTARPPLREQQFNSTIRVVSTLPIAHQDWLRGKEFKCKVHNKALPAPIEKTISKARGQPLEPKVYTMGPPREELSSRSVSLTCMINGFYPSDISVEWEKNGKAEDNYKTTPTVLDSDGSYFLYSKLSVPTSEWQRGDVFTCSVMHEALHNHYTQKSISRSPGK
light: AQVLTQTPSPVSAAVGGTVTISCQSSQSVYNDNLAWFQQKPGQPPKLLIYDASTLASGVPSRFKGSGSGTQFTLTISKLQCDDAATYYCQGVYIGHIFTFGGGTKVEIKRDPVAPTVLIFPPAADQVATGTVTIVCVANKYFPDVTVTWEVDGTTQTTGIENSKTPQNSADCTYNLSSTLTLTSTQYNSHKEYTCKVTQGTTSVVQSFNRGDC
B5: RNN0242nn with rabbit constant region (antibody)
heavy: QQQLEEYGGDLVQPEGSLTLTCKASGLDFSSSYWMCWVRQAPGKGLEWIACIYTGSSGSTSYASWAKGRFTISKTSSTTVTLQMTSLTAADTATYFCARDYDYTAYAYGIMSLWGPGTLVTVSSGQPKAPSVFPLAPCCGDTPSSTVTLGCLVKGYLPEPVTVTWNSGTLTNGVRTFPSVRQSSGLYSLSSVVSVTSSSQPVTCNVAHPATNTKVDKTVAPSTCSKPMCPPPELLGGPSVFIFPPKPKDTLMISRTPEVTCVVVDVSQDDPEVQFTWYINNEQVRTARPPLREQQFNSTIRVVSTLPIAHQDWLRGKEFKCKVHNKALPAPIEKTISKARGQPLEPKVYTMGPPREELSSRSVSLTCMINGFYPSDISVEWEKNGKAEDNYKTTPTVLDSDGSYFLYSKLSVPTSEWQRGDVFTCSVMHEALHNHYTQKSISRSPGK
light: AEIVMTQTPSSKSAAVGDTVTIKCQASQSITSYLSWYQQKPGQPPKLLIYRASTLASGVPSRFKGSGSGTQFTLTISDLECADAATYYCQSNYGSYSTNYGVTFGGGTKVEIKRDPVAPTVLIFPPAADQVATGTVTIVCVANKYFPDVTVTWEVDGTTQTTGIENSKTPQNSADCTYNLSSTLTLTSTQYNSHKEYTCKVTQGTTSVVQSFNRGDC
B6: RNN0246jj with rabbit constant region (antibody)
heavy: QSVEESGGRLVTPDETLTLTCTVSGFSLNNYHMIWVRQAPGEGLEYIGFINTGGSAYYANWAKGRFTISKTSTTVDLKITSPTTEDTATYFCASVSWRTDYSFELWGPGTLVTVSSGQPKAPSVFPLAPCCGDTPSSTVTLGCLVKGYLPEPVTVTWNSGTLTNGVRTFPSVRQSSGLYSLSSVVSVTSSSQPVTCNVAHPATNTKVDKTVAPSTCSKPMCPPPELLGGPSVFIFPPKPKDTLMISRTPEVTCVVVDVSQDDPEVQFTWYINNEQVRTARPPLREQQFNSTIRVVSTLPIAHQDWLRGKEFKCKVHNKALPAPIEKTISKARGQPLEPKVYTMGPPREELSSRSVSLTCMINGFYPSDISVEWEKNGKAEDNYKTTPTVLDSDGSYFLYSKLSVPTSEWQRGDVFTCSVMHEALHNHYTQKSISRSPGK
light: AQVLTQTPSPVSAAVGGTVTISCQASQSVYANNRLAWFQQKPGQPPKLLIYSASTLASGVPSRFKGSGSGTQFTLTISGVQCDDAATYYCAGAYTGNIYTFGGGTKVEIKRDPVAPTVLIFPPAADQVATGTVTIVCVANKYFPDVTVTWEVDGTTQTTGIENSKTPQNSADCTYNLSSTLTLTSTQYNSHKEYTCKVTQGTTSVVQSFNRGDC

Biological target: T1, Human RNF43 ECD with Fc region fused on …
Assay: competition ELISA on coated RNF43-Fc; first antibody unlabelled at 10x its EC50, second (reference) antibody biotinylated RNN0207ii at its EC50
Procedure: (§1) EC50 concentration for the binding of each anti-RNF43 monospecific antibody to RNF43-Fc (described in Example 2) was first determined by ELISA assay, using the biotinylated antibodies. In brief, RNF43-Fc at 5 micro g/mL or 1 micro g/mL was coated on Maxisorp plate (NUNC) at 4 degrees C. overnight. The coated plate was then washed with PBS-T, followed by blocking with Blocking One solution (Nacalai Tesque) for 2 hours at room temperature. Serially diluted, biotinylated anti-RNF43 monospecific antibody was then added and incubated for 1 hour at room temperature. After washing with PBS-T, StAv-HRP (PIERCE) was added and incubated for 1 hour at room temperature. After washing with PBS-T, ABTS Peroxidase substrate (SeraCare Life Sciences) was added and signal intensity was measured using Multiskan™ GO Microplate Spectrophotometer. EC50 concentration for the binding of the anti-RNF43 monospecific antibody to RNF43-Fc was calculated using Non-linear regression 4-parameter fit. The normalized absorbance at 405 nm/570 nm measured when EC50 concentration of anti-RNF43 antibodies was applied is denoted as AO.
(§2) To evaluate binding competition between the anti-RNF43 monospecific antibodies, ELISA assay with similar setting was conducted. RNF43-Fc was first coated in Maxisorp plate overnight. […] After washing with PBS-T, ABTS Peroxidase substrate was added and signal intensity was measured using Multiskan™ GO Microplate Spectrophotometer. The normalized absorbance at 405 nm/570 nm is denoted as A.

| Binder | binding inhibition (%) |
| --- | --- |
| B1 | 65.9% |
| B2 | 1.89% |
| B3 | -6.42% |
| B4 | -1.42% |
| B5 | 1.62% |
| B6 | -0.14% |

Biological target: T1, Human RNF43 ECD with Fc region fused on …
Assay: competition ELISA on coated RNF43-Fc; first antibody unlabelled at 10x its EC50, second (reference) antibody biotinylated RNN0193jj at its EC50
Procedure: as §1, §2

| Binder | binding inhibition (%) |
| --- | --- |
| B1 | 1.05% |
| B2 | 2.35% |
| B3 | 0.25% |
| B4 | 50.2% |
| B5 | 12.6% |
| B6 | 1.17% |

Biological target: T1, Human RNF43 ECD with Fc region fused on …
Assay: competition ELISA on coated RNF43-Fc; first antibody unlabelled at 10x its EC50, second (reference) antibody biotinylated RNN0192nn at its EC50
Procedure: as §1, §2

| Binder | binding inhibition (%) |
| --- | --- |
| B1 | -3.55% |
| B2 | 60.6% |
| B3 | 88.5% |
| B4 | -15.2% |
| B5 | 9.66% |
| B6 | -0.13% |

Biological target: T1, Human RNF43 ECD with Fc region fused on …
Assay: competition ELISA on coated RNF43-Fc; first antibody unlabelled at 10x its EC50, second (reference) antibody biotinylated RNN0246jj at its EC50
Procedure: as §1, §2

| Binder | binding inhibition (%) |
| --- | --- |
| B1 | -1.38% |
| B2 | 15.1% |
| B3 | 21.9% |
| B4 | 5.04% |
| B5 | 74.7% |
| B6 | 29.8% |

Biological target: T1, Human RNF43 ECD with Fc region fused on …
Assay: competition ELISA on coated RNF43-Fc; first antibody unlabelled at 10x its EC50, second (reference) antibody biotinylated RNN0242nn at its EC50
Procedure: as §1, §2

| Binder | binding inhibition (%) |
| --- | --- |
| B1 | -0.71% |
| B2 | 22.3% |
| B3 | 45.6% |
| B4 | 21.3% |
| B5 | 86.8% |
| B6 | 22.6% |

Biological target: T1, Human RNF43 ECD with Fc region fused on …
Assay: competition ELISA on coated RNF43-Fc; first antibody unlabelled at 10x its EC50, second (reference) antibody biotinylated RNN0187jj at its EC50
Procedure: as §1, §2

| Binder | binding inhibition (%) |
| --- | --- |
| B1 | -0.38% |
| B2 | 30.7% |
| B3 | 91% |
| B4 | 3.21% |
| B5 | 11.4% |
| B6 | 12.6% |
